Data published in patent US20220033522A1 (Janssen / Centocor, published 2022).
Read-outs that look alike come from different tables or passages of the source.

Columns and labels:
[1] = target: T1, polymeric immunoglobulin receptor (pIgR), his-tagged (human, UniProt P01833 19-638); assay: BLI (Octet), his-tagged pIgR on anti-His biosensor
[2] = target: T2, biotinylated SARS-CoV-2 spike glycoprotein (SARS-CoV-2, UniProt P0DTC2 16-1213)
[3] = target: T2, biotinylated SARS-CoV-2 spike …; remark: listed apart in the source
[4] = target: T3, SARS-CoV-2 spike glycoprotein (his-tagged SARS-CoV-2 RBD) (SARS-CoV-2, UniProt P0DTC2 319-541); assay: BLI (Octet), his-tagged SARS-CoV-2 RBD on anti-His biosensor
T3 construct: domain: RBD; also called COVID-19 RBD; wild-type spike glycoprotein

[5] = target: T1, polymeric immunoglobulin receptor …; assay: BLI (Octet): his-tagged pIgR on anti-His (HIS2) biosensors, protein in solution at 10 µg/mL, 90 s association, 90 s dissociation

T1 sequence (P01833 19-638 limits assumed): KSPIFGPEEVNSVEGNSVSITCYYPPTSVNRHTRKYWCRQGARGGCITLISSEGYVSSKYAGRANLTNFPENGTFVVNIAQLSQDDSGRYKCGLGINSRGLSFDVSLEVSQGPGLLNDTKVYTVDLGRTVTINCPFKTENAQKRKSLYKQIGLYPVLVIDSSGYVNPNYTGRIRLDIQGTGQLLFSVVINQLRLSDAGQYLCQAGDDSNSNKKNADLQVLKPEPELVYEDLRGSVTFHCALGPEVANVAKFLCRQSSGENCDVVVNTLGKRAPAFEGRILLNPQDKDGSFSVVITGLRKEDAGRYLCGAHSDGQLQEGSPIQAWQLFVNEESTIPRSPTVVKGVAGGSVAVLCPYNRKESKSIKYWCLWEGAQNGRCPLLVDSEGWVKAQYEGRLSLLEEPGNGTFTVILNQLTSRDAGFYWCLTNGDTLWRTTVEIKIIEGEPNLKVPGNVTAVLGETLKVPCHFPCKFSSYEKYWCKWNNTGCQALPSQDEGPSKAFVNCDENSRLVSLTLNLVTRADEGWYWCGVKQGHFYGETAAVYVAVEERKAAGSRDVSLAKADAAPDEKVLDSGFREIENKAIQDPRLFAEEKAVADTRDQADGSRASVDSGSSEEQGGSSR

Row | Binder | binding result [1] | IC50 [2] [pM] | IC50 [3] [pM] | Kd [4] [pM] | koff [4] [s⁻¹] | binding result [5] | Relative Kd (compared to CR3022) [4]
1 | CR3022 (antibody) heavy: not shown light: […] | no binding (tested: 10 µg/mL) |  |  |  |  |  | 
2 | D001 (antibody, V domains shown, also called Sino Biological cat. #40150-D001) VH: QVQLQQSGPELMKPGASVKISCKASGYSFTNYYIHWVKQSHGKSLEWIGYIDPFNGGTSDNLKFKGAATLTVDKSSSTAYMHLSSLTSEDSAVYYCARSEYDPYYVMDYWGQGTSVTVSS VL: EIVLTQSPDTLSVTPGDSVSLSCRASQSISSNLHWYQQKSHESPRLLIKYASQSISGIPSRFSGSGSGTDFTLSINSVETEDFGIYFCQQTNFWPYTFGGGTKLEIKR |  | 200 | 299 | 15000 | 1.1e-05 | no binding (tested: 10 µg/mL) | 
3 | SAD-S35 (antibody, human IgG1, kappa, V domains shown, also called Acro Biosystems cat. #SAD-S35) VH: QVQLVESGGGLVQPGGSLRLSCAASGITVSSNYMSWVRQAPGKGLEWVSVIYSGGSTYYADSVKGRFSISRDNSKNTLYLQMNSLRAEDTAVYYCARDLQERGGMDVWGQGTTVTVSS VL: not shown |  |  | 323 | 14300 | 8.91e-06 |  | 12
